For one experiment, the target named is T1, hTREM2 (Homo sapiens, UniProt Q9NZC2).
T1 construct: The ecto domain (residues 19-172) of TREM2 (UniProtKB—Q9NZC2); secretion signal of mouse Ig kappa chain V-III (P01661 aa 1-20) (N); made in house; host or cells: Expi293F
T1 sequence (Q9NZC2 19-172): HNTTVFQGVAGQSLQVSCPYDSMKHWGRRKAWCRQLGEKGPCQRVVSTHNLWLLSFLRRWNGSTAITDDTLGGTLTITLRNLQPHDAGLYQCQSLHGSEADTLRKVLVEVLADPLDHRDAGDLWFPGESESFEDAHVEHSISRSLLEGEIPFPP
Kind of experiment: Octet binning (competition with R&D antibody on biotinylated TREM2-His). In kind it is binding. Conditions: epitope bin, 100 nM. The method, then: Competition with R&D antibody was done by Octet Red using biotinylated human Trem2-His protein generated in house. Biotinylated human TREM2-His protein was captured on a streptavidin tip, and the tip was then incubated in either 100 nM of R&D Ab or buffer for 3 minutes, followed by incubation for 3 minutes in 100 nM of testing hybridoma. The difference of hybridoma binding curve with or without pre-binding to R&D antibody was analyzed to determine the epitope.
(In general: BLI is a label-free optical method that tracks binding on a fibre tip over time.)

The target in experiment [1] is T2, TREM2 (Homo sapiens, UniProt Q9NZC2).
T2 construct: expressed in transfected cells
Description: PAM and single point pSyk screen, HEK293 TREM2/DAP12 cells, antibody with or without PS/PC liposomes. In kind it is cell-based. How it is done:
Two days in advance of the experiment, HEK293 cells stably overexpressing TREM2 and DAP12 were plated at 40,000 cells/well on a 96 well poly-D-lysine-coated plate. In PAM experiments utilizing lipid vesicles, the lipid vesicles (see protocol below) were then mixed with the antibodies (at a constant concentration) on a 96-well plate using a Hamilton Nimbus liquid handler at a liposome concentration of 0, liposome EC20, EC50, or EC80 (see below) in PBS. In agonist experiments alone (no liposomes), antibodies were diluted without liposomes in PBS. The cells were washed 3× with HBSS with a Biotek 405/406 plate washer, then 50 μL of the liposome/antibody mixture was added per well using a Hamilton Nimbus liquid handler. The cell plate containing the liposome/antibodies was then transferred to a 37° C. incubator for 5 minutes. The liposome/antibody solution was removed by flicking the plate, and 40 μL lysis buffer (Cell Signaling Technologies, CST) was added using the liquid handler. […]
The liposomes were diluted in HBSS, and 50 μL of liposome solution was added per well to TREM2/DAP12-overexpressing cells using the Hamilton Nimbus liquid handler as in the above protocol. […] The pSyk response was measured as described above from 10 μL lysate, and the curve fit using a non-linear regression (4 parameter dose response) fit in Prism.
T2 sequence (O43914 22-113 partner, one chain of several): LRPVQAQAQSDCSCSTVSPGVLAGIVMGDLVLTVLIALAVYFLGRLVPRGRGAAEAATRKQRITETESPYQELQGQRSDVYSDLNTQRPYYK

Experiment [2] deals with T3, TREM2 (Homo sapiens, UniProt Q9NZC2).
T3 construct: macrophage cells that endogenously express TREM2; endogenous in cells; host or cells: primary human monocyte-derived macrophages from donor blood
T3 sequence (Q9NZC2 19-230): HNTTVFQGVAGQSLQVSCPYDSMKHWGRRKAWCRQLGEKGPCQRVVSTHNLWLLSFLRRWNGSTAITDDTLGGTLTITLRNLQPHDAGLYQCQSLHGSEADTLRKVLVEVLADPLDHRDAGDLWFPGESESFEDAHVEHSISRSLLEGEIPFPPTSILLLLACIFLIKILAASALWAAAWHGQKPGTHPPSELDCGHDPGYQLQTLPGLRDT
Kind of experiment: TREM2 PAM/pSyk assay on human macrophages. It is filed as cell-based. The following applies: for effect on lipid ligand activation of TREM2 (in words): FIG. 9B, human macrophages; for Slope + Liposome: pSyk, 10 nM antibody with 0, EC20, EC50, EC80 PS/PC liposomes, liposome-alone signal subtracted. The method, then:
Human macrophages were differentiated from donor blood using a human monocyte enrichment cocktail (Stem Cell Technologies) and culturing monocytes with human mCSF for five days in macrophage media (RPMI+10% Hyclone FBS+Glutamax+Pen/Strep+non-essential amino acids+sodium pyruvate). On the fifth day, the human macrophages were scraped from the flasks and were re-plated at 100,000 cells/well on a 96-well poly-D-lysine-coated plate in the macrophage media (without mCSF). The cells were incubated for 24 hours to adhere, then the media was removed.
Antibodies pre-mixed with lipid vesicles comprised of 70% DOPC and 30% POPS (made according to the procedure for making vesicles described above) diluted in HBSS were immediately added to the cells, and allowed to incubate for 5 minutes at 37° C. The liposome/antibody solution was removed, and 35 μL lysis buffer (Cell Signaling Technologies, CST) was added using the liquid handler. The lysate was then incubated at 4° C. for 30 minutes, then either frozen at −80° C. or immediately carried forward to a pSyk AlphaLISA assay as described above. […] The results of the assay are shown in FIG. 9B and in Table 8 below.

The results in this text go back to patent US20200277373A1, “ANTI-TREM2 ANTIBODIES AND METHODS OF USE THEREOF” (Denali Therapeutics Inc., priority 2017, published 2020).

B1: 21D11: anti-TREM2 antibody clone; VH SEQ ID NO:14, VL SEQ ID NO:25 (antibody, V domains shown)
VH: QVQLQQSGAELARPGASVKLSCKASGYTFTSYWIQWVKQRPGQGLEWIGTIYPGDGDARYTQKFKGKATLTADKSSSTTYMQLNSLASEDSAVYYCARNGITTAGYYAMDYWGQGTSVTVSS
VL: DIQMTQSPASLSVSVGETVTITCRASENIYSNLAWYQQKQGRSPQLLVYAATNLADGVPSRFSGSGSGTQYSLKINSLQSEDFGYYYCQHFWGTPYTFGGGTKVEIK
On to B1, for which, in the experiment with hTREM2, the “Bin by Octet” value was 1-2. In the experiment with TREM2 [1] (no liposomes, HEK293 TREM2/DAP12), the “p-Syk induction by antibody alone (in words)” value is recorded as “do not induce p-Syk”.

B2: 3D3.A1: anti-TREM2 antibody clone; VH SEQ ID NO:18, VL SEQ ID NO:29 (antibody, V domains shown)
VH: EVQLQQSGPELVKPGASVKISCKTSGYTLSEYTMHWVIQSHGKSLEWIGGVIPNSGGTSYNQKFRDKASLTVDKSSSTAYLELRSLTSEDSAVYYCARGDDSYRRGYALDYWGQGTSVTVSS
VL: DIVMSQSPSSLAVSVGEKVTMSCKSSQSLLYSSNQKSYLAWYQQKPGQSPKLLIYWASTRESGVPDRFRGSGSGTDFTLTISSVKAEDLAVYYCQQYFSYPPTFGGGTKLEIK
B2: in the experiment with TREM2 [2], the “effect on lipid ligand activation of TREM2 (in words)” value is reported as “at least an additive effect” and the “Slope + Liposome” value is 94. For the same molecule, in the experiment with hTREM2, the “Bin by Octet” value is given as 3. For the same molecule, in the experiment with TREM2 [1] (FIG. 9A, 30 nM antibody, PS/PC liposomes, HEK cells), the “interaction with lipid ligand to activate p-Syk (in words)” value is on record as “additive with lipid TREM2 activators”.

B3: RS9.F6: anti-TREM2 antibody clone; VH SEQ ID NO:24, VL SEQ ID NO:35 (antibody, V domains shown)
VH: QVQLQQPGAELVKPGASVKLSCKASGYTFTSYWMHWVKQSPGRGLEWIGRSDPTTGGTNYNEKFKTKATLTVDKPSSTAYMQLSSLTSDDSAVYYCVRTSGTGDYWGQGTSLTVSS
VL: DVVMTQTPLSLPVSLGDQASISCRSSQSLVHNNGNTFLHWYLQKPGQSPKLLIYKVSNRFSGVPDRFSGSGSGTDFTLKISRVEAEDLGVYFCSQTTHVPPTFGGGTKLEIK
As for B3, in the experiment with TREM2 [2], the “effect on lipid ligand activation of TREM2 (in words)” value was “at least an additive effect” and the “Slope + Liposome” value was 878.
